Results as given in patent US10654939.

What was measured:
[1] = target: recombinant human CD40 (ECD)-his (human) (UniProt P25942); assay: ELISA, hCD40(ECD)-his coated
[2] = target: human CD40 expressed on cells (human) (UniProt P25942); assay: cell-based or functional assay
[3] = target: rhesus CD40 expressed on HEK293A cells (rhesus monkey); assay: FACS, HEK293A/rhesusCD40 cells
[4] = target: human CD40 expressed on cells (human) (UniProt P25942); assay: FACS, HEK293A/humanCD40 cells
[5] = target: recombinant rhesus CD40 (ECD)-hFc (rhesus monkey); assay: ELISA, rhCD40(ECD)-hFc coated
recombinant rhesus CD40 (ECD)-hFc (rhesus monkey), sequence (P25942 other isoform, or with tags, fused parts or gaps): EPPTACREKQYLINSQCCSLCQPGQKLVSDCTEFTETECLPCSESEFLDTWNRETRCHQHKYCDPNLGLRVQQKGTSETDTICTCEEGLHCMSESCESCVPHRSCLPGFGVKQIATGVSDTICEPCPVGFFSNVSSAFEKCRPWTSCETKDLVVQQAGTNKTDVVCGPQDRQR

[6] = target: recombinant human CD40 (ECD)-his (human) (UniProt P25942); assay: SPR (Biacore 8K), hCD40(ECD)-his coupled to chip, antibody injected

recombinant human CD40 (ECD)-his (human), sequence (P25942 21-193): as the sequence (P25942 other isoform, or with tags, fused parts or gaps) above, with S43G, R56H, L89W, M92T, S95A, P101L, L106S, R142H, Q172L counted along it
human CD40 expressed on cells (human), sequence (P25942 21-277 limits assumed): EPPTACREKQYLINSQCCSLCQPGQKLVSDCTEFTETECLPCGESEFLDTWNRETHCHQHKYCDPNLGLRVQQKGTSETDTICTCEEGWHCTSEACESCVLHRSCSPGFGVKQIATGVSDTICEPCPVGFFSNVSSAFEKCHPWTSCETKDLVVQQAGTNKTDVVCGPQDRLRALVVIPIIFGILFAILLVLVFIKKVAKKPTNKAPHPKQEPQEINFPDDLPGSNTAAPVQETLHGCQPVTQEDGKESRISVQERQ
rhesus CD40 expressed on HEK293A cells (rhesus monkey), sequence (P25942 other isoform, or with tags, fused parts or gaps limits assumed): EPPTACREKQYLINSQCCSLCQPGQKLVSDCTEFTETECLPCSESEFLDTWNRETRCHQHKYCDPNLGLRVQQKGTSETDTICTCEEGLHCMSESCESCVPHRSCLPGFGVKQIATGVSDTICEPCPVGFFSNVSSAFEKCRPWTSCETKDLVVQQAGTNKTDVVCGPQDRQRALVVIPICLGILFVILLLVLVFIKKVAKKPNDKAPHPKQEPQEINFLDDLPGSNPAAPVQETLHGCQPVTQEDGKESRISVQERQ

EC50 [1]: 0.024 µg/mL
HEK Blue EC50 [2]: 1030 ng/mL
EC50 [3]: 0.0673 µg/mL
EC50 [4]: 0.149 µg/mL
EC50 [5]: 0.0229 µg/mL
Kd [6]: 29 nM
koff [6]: 0.0348 s⁻¹
kon [6]: 1.2e+06 M⁻¹ s⁻¹
B1: ADC1013 (antibody, INN chains, looked up, V domains shown)
VH: EVQLLESGGGLVQPGGSLRLSCAASGFTFSTYGMHWVRQAPGKGLEWLSYISGGSSYIFYADSVRGRFTISRDNSENALYLQMNSLRAEDTAVYYCARILRGGSGMDLWGQGTLVTVSS
VL: QSVLTQPPSASGTPGQRVTISCTGSSSNIGAGYNVYWYQQLPGTAPKLLIYGNINRPSGVPDRFSGSKSGTSASLAISGLRSEDEADYYCAAWDKSISGLVFGGGTKLTVL
modifications: IgG1/kappa
